Measurements published in paper doi:10.1101/2025.10.28.684701.

T1: MBP-CFLAP1 (AKS1) (Arabidopsis thaliana, UniProt Q9C690 1-379)
T1 sequence: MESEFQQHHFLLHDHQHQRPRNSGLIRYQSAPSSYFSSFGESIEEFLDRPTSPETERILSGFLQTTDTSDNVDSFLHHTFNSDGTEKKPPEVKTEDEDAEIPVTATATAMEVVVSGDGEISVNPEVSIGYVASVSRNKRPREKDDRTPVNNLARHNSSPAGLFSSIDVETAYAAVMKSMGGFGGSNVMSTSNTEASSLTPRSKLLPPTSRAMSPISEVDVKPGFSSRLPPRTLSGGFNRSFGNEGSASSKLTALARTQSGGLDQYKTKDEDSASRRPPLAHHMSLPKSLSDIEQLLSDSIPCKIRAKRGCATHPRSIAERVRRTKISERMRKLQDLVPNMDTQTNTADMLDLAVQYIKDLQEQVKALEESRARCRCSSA

B1: pCYP86A2 P2 probe (dsDNA)
DNA 1: GATATTGCAGTTGCAGCGTACACAAGTCAG
DNA 2: CTGACTTGTGTACGCTGCAACTGCAATATC
B2: pCYP86A2 P3 probe (dsDNA)
DNA 1: GATCATTGGTTTACGATCACTTGCAAAGTC
DNA 2: GACTTTGCAAGTGATCGTAAACCAATGATC
B3: pCYP86A4 P1 probe (dsDNA)
DNA 1: TCGGAAAAGTACACTTGGGCTTATA
DNA 2: TATAAGCCCAAGTGTACTTTTCCGA
B4: pBDG1 P1 probe (dsDNA)
DNA 1: CGTCGTTGACCTCTGCATTACAATTGTGTC
DNA 2: GACACAATTGTAATGCAGAGGTCAACGACG
B5: pCYP86A2 P1 probe (dsDNA)
DNA 1: CTACGTACAGTTGTGTTCCATTTGTTACAA
DNA 2: TTGTAACAAATGGAACACAACTGTACGTAG
B6: pBDG1 P2 probe (dsDNA)
DNA 1: TGGCCACATGCCATCATATCACTTGTCCAT
DNA 2: ATGGACAAGTGATATGATGGCATGTGGCCA
B7: pCYP86A4 P2 probe (dsDNA)
DNA 1: CCACTTTGGTTAACATTTGAGGAAT
DNA 2: ATTCCTCAAATGTTAACCAAAGTGG

What follows are binders tested against T1, MBP-CFLAP1 (AKS1) (assay: EMSA).

Binding result, binds:
B1
B2
B3
B4
B5
B6
B7
